Source: PMC10235760 (Frontiers in Immunology, 2023)

Target: T1, SARS-CoV-2 receptor binding domain, omicron subvariant BA5 (RBDBA5) (SARS-CoV-2, Omicron BA.5, strain)
T1 construct: also called Omicron BA5 RBD
Assay: SPR; Biacore T200, […]; 25°C, HBS-EP+ ([…], pH 7.4); 1:1 binding model; triplicate
Conditions: both partners purified

B1: antibody 10-40 with triple mutations (S32H heavy, R100bI heavy, Q53F light) (antibody, V domains shown)
VH: QLQLQESGPGLVKPSETLSLTCTVSGGSISSHNFYWGWIRQPPGKGLEWIASITYSGRTFYNPSLKSRVAISVDTSKNQFSLKLSSVTAADTAVYYCARTFPSYYDISGYHYLNYGMDVWGQGTTVTVSS
VL: NFMLTQPHSMSESPGKTVTISCTRSSGSIASNYVQWYQQRPGSSPTTVIYEDNFRPSGVPDRFSGSIDSSSNSASLTISGLKTEDEADYYCQSYDSSSWVFGGGTKLTVL
notes: also called combination of S32HH, R100bIH, and Q53FL
fold improvement of binding affinity over antibody 10-40: > 5000 fold
